# Source: publication PMC8153946, “Substrate Selectivity of Coumarin Derivatives by Human CYP1 Enzymes: In Vitro Enzyme Kinetics and In Silico Modeling” (ACS Omega, 2021)
# Marks after values point to notes of the source that are not given here.
# Legend:
# Type in all cases: biochemical, human
# [1] = substrate: COc1ccc2oc(=O)c(-c3ccc(OC(F)(F)F)cc3)cc2c1; assay: Michaelis–Menten kinetics of oxidation to fluorescent 7-hydroxy metabolite by recombinant CYP1A2; conditions: other: recombinant CYP1A2, 100 mM Tris-HCl pH 7.4, 37 °C, 95% confidence interval in brackets
# Procedure: (§1) Baculovirus-insect cell-expressed human CYP1A1, CYP1A2, CYP1B1, CYP2A6, CYP2B6, CYP2C8, CYP2C9, CYP2C19, CYP2D6, CYP2E1, CYP3A4, CYP3A5, and CYP3A7 were purchased from BD Biosciences Discovery Labware (Woburn, MA, USA) and used according to the manufacturer’s instructions.
# (§2) The kinetic assays were carried out in 100 μL volume containing 100 mM Tris-HCl buffer pH 7.4, 0–40 μM coumarin derivative or 0–10 μM 7-ethoxyresorufin, 1–25 nM recombinant CYP or 0–0.1 g/L microsomal protein, and 20% NADPH regenerating system. Incubations took place at 37 °C in 96-multiwell plates; the fluorescence was measured with a Victor[2] plate reader (PerkinElmer Life Sciences, Turku, Finland). The detailed conditions are described in the figures and tables. The reaction was started by adding NADPH, and fluorescence was measured at 2 min intervals for 40 min using excitation at 405 nm and emission at 460 nm for oxidation of coumarin derivatives[18] and excitation at 570 nm and emission at 615 nm for ethoxyresorufin or pentoxyresorufin 7-O-dealkylations. Incubations without the substrate, enzyme, or NADPH were used as blank reactions. Resorufin was used as a standard, and 3-(4-fluorophenyl)-7-hydroxycoumarin was used as the surrogate standards to calculate the amount of product formed. The linear phase of the reactions was used for calculations.
# (§3) Enzyme kinetic parameters were analyzed using the nonlinear Michaelis–Menten equation v = Vmax × S/(Km + S), in which v is the rate for 7-hydroxylation of a coumarin derivative, S is its concentration, and Vmax value is the limiting rate of the reaction of 7-hydroxylation, which reached a half-maximal rate at a concentration of Km for the substrate.
# [2] = substrate: COc1ccc2oc(=O)c(-c3ccc(O)c(F)c3)cc2c1; assay: as above; conditions: other: recombinant CYP1A2, 100 mM Tris-HCl pH 7.4, 37 °C, 95% confidence interval in brackets
# Procedure: as §1, §2, §3
# [3] = substrate: O=c1oc2ccc(O)cc2cc1-c1cccc(O)c1; assay: as above; conditions: other: recombinant CYP1A2, 100 mM Tris-HCl pH 7.4, 37 °C, 95% confidence interval in brackets
# Procedure: as §1, §2, §3
# [4] = substrate: Cc1ccc2oc(=O)c(-c3ccc(F)cc3)cc2c1; assay: as above; conditions: other: recombinant CYP1A2, 100 mM Tris-HCl pH 7.4, 37 °C, 95% confidence interval in brackets
# Procedure: as §1, §2, §3
# [5] = substrate: O=c1oc2ccccc2cc1-c1cccc(O)c1; assay: as above; conditions: other: recombinant CYP1A2, 100 mM Tris-HCl pH 7.4, 37 °C, 95% confidence interval in brackets
# Procedure: as §1, §2, §3
# [6] = substrate: COc1ccc2cc(-c3ccc(OC(F)(F)F)cc3)c(=O)oc2c1; assay: as above; conditions: other: recombinant CYP1A2, 100 mM Tris-HCl pH 7.4, 37 °C, 95% confidence interval in brackets
# Procedure: as §1, §2, §3
# [7] = substrate: CCOc1ccc2nc3ccc(=O)cc-3oc2c1; assay: as above; conditions: other: recombinant CYP1A2, 100 mM Tris-HCl pH 7.4, 37 °C, 95% confidence interval in brackets
# Procedure: as §1, §2, §3
# [8] = substrate: COc1cccc(-c2cc3cc(OC)ccc3oc2=O)c1; assay: as above; conditions: other: recombinant CYP1A2, 100 mM Tris-HCl pH 7.4, 37 °C, 95% confidence interval in brackets
# Procedure: as §1, §2, §3
# [9] = substrate: CC(=O)Oc1ccc(-c2cc3cc(Cl)ccc3oc2=O)cc1; assay: as above; conditions: other: recombinant CYP1A2, 100 mM Tris-HCl pH 7.4, 37 °C, 95% confidence interval in brackets
# Procedure: as §1, §2, §3
# [10] = substrate: COc1ccc(-c2cc3cc(OC(C)=O)ccc3oc2=O)cc1; assay: as above; conditions: other: recombinant CYP1A2, 100 mM Tris-HCl pH 7.4, 37 °C, 95% confidence interval in brackets
# Procedure: as §1, §2, §3
# [11] = substrate: COc1ccc2oc(=O)c(-c3ccc(OC(F)(F)F)cc3)cc2c1; assay: Michaelis–Menten kinetics of oxidation to fluorescent 7-hydroxy metabolite by recombinant CYP1A1; conditions: other: recombinant CYP1A1, 100 mM Tris-HCl pH 7.4, 37 °C, 95% confidence interval in brackets
# Procedure: as §1, §2, §3
# [12] = substrate: COc1ccc2oc(=O)c(-c3ccc(O)c(F)c3)cc2c1; assay: as above; conditions: other: recombinant CYP1A1, 100 mM Tris-HCl pH 7.4, 37 °C, 95% confidence interval in brackets
# Procedure: as §1, §2, §3
# [13] = substrate: CCOc1ccc2ccc(=O)oc2c1; assay: as above; conditions: other: recombinant CYP1A1, 100 mM Tris-HCl pH 7.4, 37 °C, 95% confidence interval in brackets
# Procedure: as §1, §2, §3
# [14] = substrate: O=c1oc2ccc(O)cc2cc1-c1cccc(O)c1; assay: as above; conditions: other: recombinant CYP1A1, 100 mM Tris-HCl pH 7.4, 37 °C, 95% confidence interval in brackets
# Procedure: as §1, §2, §3
# [15] = substrate: COc1ccc2cc(-c3ccc(OC(F)(F)F)cc3)c(=O)oc2c1; assay: as above; conditions: other: recombinant CYP1A1, 100 mM Tris-HCl pH 7.4, 37 °C, 95% confidence interval in brackets
# Procedure: as §1, §2, §3
# [16] = substrate: CCOc1ccc2nc3ccc(=O)cc-3oc2c1; assay: as above; conditions: other: recombinant CYP1A1, 100 mM Tris-HCl pH 7.4, 37 °C, 95% confidence interval in brackets
# Procedure: as §1, §2, §3
# [17] = substrate: COc1cccc(-c2cc3cc(OC)ccc3oc2=O)c1; assay: as above; conditions: other: recombinant CYP1A1, 100 mM Tris-HCl pH 7.4, 37 °C, 95% confidence interval in brackets
# Procedure: as §1, §2, §3
# [18] = substrate: CC(=O)Oc1ccc(-c2cc3cc(Cl)ccc3oc2=O)cc1; assay: as above; conditions: other: recombinant CYP1A1, 100 mM Tris-HCl pH 7.4, 37 °C, 95% confidence interval in brackets
# Procedure: as §1, §2, §3
# [19] = substrate: COc1ccc(-c2cc3cc(OC(C)=O)ccc3oc2=O)cc1; assay: as above; conditions: other: recombinant CYP1A1, 100 mM Tris-HCl pH 7.4, 37 °C, 95% confidence interval in brackets
# Procedure: as §1, §2, §3
# [20] = substrate: CCCCCOc1ccc2nc3ccc(=O)cc-3oc2c1; assay: as above; conditions: other: recombinant CYP1A1, 100 mM Tris-HCl pH 7.4, 37 °C, 95% confidence interval in brackets
# Procedure: as §1, §2, §3
protein,measurement,setting,value
"human CYP1A2 (Homo sapiens) (protein, purchased BD Biosciences Discovery Labware (Woburn, MA, USA); host or cells: baculovirus-insect cells) MALSQSVPFSATELLLASAIFCLVFWVLKGLRPRVPKGLKSPPEPWGWPLLGHVLTLGKNPHLALSRMSQRYGDVLQIRIGSTPVLVLSRLDTIRQALVRQGDDFKGRPDLYTSTLITDGQSLTFSTDSGPVWAARRRLAQNALNTFSIASDPASSSSCYLEEHVSKEAKALISRLQELMAGPGHFDPYNQVVVSVANVIGAMCFGQHFPESSDEMLSLVKNTHEFVETASSGNPLDFFPILRYLPNPALQRFKAFNQRFLWFLQKTVQEHYQDFDKNSVRDITGALFKHSKKGPRASGNLIPQEKIVNLVNDIFGAGFDTVTTAISWSLMYLVTKPEIQRKIQKELDTVIGRERRPRLSDRPQLPYLEAFILETFRHSSFLPFTIPHSTTRDTTLNGFYIPKKCCVFVNQWQVNHDPELWEDPSEFRPERFLTADGTAINKPLSEKMMLFGMGKRRCIGEVLAKWEIFLFLAILLQQLEFSVPPGVKVDLTPIYGLTMKHARCEHVQARLRFSIN",Km,[1],0.96 (0.61–1.32) μM
same,kcat,[1],4.4 (4.1–4.8) mol/(min·mol CYP)
same,Km,[2],20.3 (0–53) μM
same,kcat,[2],6.0 (0–12.8) mol/(min·mol CYP)
same,Km,[3],2.4 (1.8–3.1) μM
same,kcat,[3],29.8 (27.5–32.2) mol/(min·mol CYP)
same,Km,[4],7.6 (0.59–14.6) μM
same,kcat,[4],1 (0.63–1.38) mol/(min·mol CYP)
same,Km,[5],47 (8–86) μM
same,kcat,[5],0.4 (0.19–0.6) mol/(min·mol CYP)
same,Km,[6],7.9 (5.1–10.6) μM
same,kcat,[6],9.1 (7.8–10.5) mol/(min·mol CYP)
same,Km,[7],0.56 (0.44–0.68) μM
same,kcat,[7],3.2 (2.9–3.6) mol/(min·mol CYP)
same,Km,[8],0.27 (0.19–0.36) μM
same,kcat,[8],8.2 (7.6–8.9) mol/(min·mol CYP)
same,Km,[9],2 (1.2–2.7) μM
same,kcat,[9],1.2 (1.1–1.4) mol/(min·mol CYP)
same,Km,[10],2.2 (1.6–2.8) μM
same,kcat,[10],8.7 (8–9.4) mol/(min·mol CYP)
"human CYP1A1 (Homo sapiens) (protein, purchased BD Biosciences Discovery Labware (Woburn, MA, USA); host or cells: baculovirus-insect cells) MLFPISMSATEFLLASVIFCLVFWVIRASRPQVPKGLKNPPGPWGWPLIGHMLTLGKNPHLALSRMSQQYGDVLQIRIGSTPVVVLSGLDTIRQALVRQGDDFKGRPDLYTFTLISNGQSMSFSPDSGPVWAARRRLAQNGLKSFSIASDPASSTSCYLEEHVSKEAEVLISTLQELMAGPGHFNPYRYVVVSVTNVICAICFGRRYDHNHQELLSLVNLNNNFGEVVGSGNPADFIPILRYLPNPSLNAFKDLNEKFYSFMQKMVKEHYKTFEKGHIRDITDSLIEHCQEKQLDENANVQLSDEKIINIVLDLFGAGFDTVTTAISWSLMYLVMNPRVQRKIQEELDTVIGRSRRPRLSDRSHLPYMEAFILETFRHSSFVPFTIPHSTTRDTSLKGFYIPKGRCVFVNQWQINHDQKLWVNPSEFLPERFLTPDGAIDKVLSEKVIIFGMGKRKCIGETIARWEVFLFLAILLQRVEFSVPLGVKVDMTPIYGLTMKHACCEHFQMQLRS",Km,[11],4.8 (2.6–6.9) μM
same,kcat,[11],12.6 (10.6–14.6) mol/(min·mol CYP)
same,Km,[12],10.7 (2.6–18.7) ^b μM
same,kcat,[12],32 (18–46) mol/(min·mol CYP)
same,Km,[13],11.9 (0–25.1) μM
same,kcat,[13],26.2 (14.5–38) mol/(min·mol CYP)
same,Km,[14],2.11 (0.17–4.1) μM
same,kcat,[14],4.0 (3.0–5.0) mol/(min·mol CYP)
same,Km,[15],9.7 (4.8–14.6) μM
same,kcat,[15],4.2 (3.3–5.1) mol/(min·mol CYP)
same,Km,[16],0.054 (0.035–0.075) μM
same,kcat,[16],10.3 (9.3–11.4) mol/(min·mol CYP)
same,Km,[17],0.96 (0.4–1.52) μM
same,kcat,[17],24.2 (19.4–29) mol/(min·mol CYP)
same,Km,[18],0.41 (0.26–0.55) μM
same,kcat,[18],6.5 (5.9–7.1) mol/(min·mol CYP)
same,Km,[19],1.04 (0.65–1.42) μM
same,kcat,[19],7.5 (7–8.1) mol/(min·mol CYP)
same,Km,[20],0.74 (0.54–0.94) μM
same,kcat,[20],1.35 (1.19–1.50) mol/(min·mol CYP)
